Measurements: the nanobody polyreactivity screen of Harvey et al. (2022)

assay: yeast display, Sf9 membrane polyspecificity reagent, FACS + sequencing; frameworks hold sequencing errors
Method in brief: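 In a synthetic yeast display library (Saccharomyces cerevisiae BJ5465), nanobody expression was induced with galactose for 36–48 hours. FACS gates were set low and high (top ~1%) using anti-HA fluorescence for expression and streptavidin fluorescence for binding of the Sf9 membrane reagent. Each polyreactivity label is drawn from the gate of origin.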

Sequence	polyreactivity (PSR sort gate)
QVQLVESGGGLVQAGGSLRLSCAASGSTFYYKSMGWYRQAPGKERELVAAITFTGGSTYADSVKGRFTISRDNAKNTVYLQMNSLIPEDTAVYYCAATIQGHDYLGTGYDYWGQGTQVTVSS	low polyreactivity
QVQLVETGRGLVQAGGSLRLSCAASGLILVPNTMGWYRQAPGTERELVAAISYSGGGPYYADSVKGRFTLSRDNATNTVYLQMNSLKPEDTAVYSCAAYDKRESPPYGYWGQGTQVTVSS	low polyreactivity
QVQLVESGGGLVQAGGRLRLSCAASGFIFIRNAMGWYRQAPGKERELVAAITRSGGRTYYADSVKGRFTISRDKAKNTVYLQMNSLKPEDTAVYYCAADADAAWGQGTQVTVSS	high polyreactivity
QVQLVESGGGLVQAGGSLRLSCAASGSTFPYYAMGWYRQAPGKERELVAVITSSGSRTYYADSVKGRFTISRDNAKNTVYLQMNSLKPEDTAVYYCARDTRYYRPYRSQYDYWGQGTQVTVSS	high polyreactivity
QVQLVESGGRLVQAGGSLRLSCAASGRIFRRNAMGWYRQAPGKERELVAAISSSGGRTYYADSVKGRFTISRDNAKNTVYLQMNSLKPEDTAVYYCATRESLEPGYYWGQGTQVTVSS	high polyreactivity
QVQLVESGGCLVQAGGSLRLSCASSGITFFEYAMGCYRQAPGKERELVAVITSGGSTNYADSVKGRFTISRDNAKNTVYLQMNSLKPEDTAVYYCNARVVKYRWWYDYYYWGQGTQVTVSS	low polyreactivity
QVQLVESGGGLVQAGGSLRLSCAASGSTFAYNAMGWYRQAPGKERELVAAISWRGGSTYYADSVKGRFTISRDNAKNTVYLQMNSLKPEDTAVYYCAALYPYKREDYWGQGTQVTVSS	high polyreactivity
QVQLVESGGGLVQAGGSLRLSCAASGSIFKYNDMGWYRQAPGKERELVAAISWRGGRTYYADSVKGRFTISRDNAKNTVYLQMNSLKPEDTAVYYCNVVLDNRRGTYSYYYWGQGTQVTVSS	high polyreactivity
QVQLVESGGGLVQAGGSLRLSCAASGRIFGDNAMGWYRQAPGKERELVADITSSGGSTHYADSVKGRFTISRDNAKNNVYLQLNSLKPEDTEVYYCNADDYVYFDDGDYWGQGTQVTVSS	low polyreactivity
QVQLGESGGGLVQAGGSLRLSCAASGFTFTHYSMGWYRQAPGKERELVAAISTSGGSTYYADSVKGRFTISRDTAKNSVYLQMNSLKPEDTAVYYCAARRDGCVLWGYYYWGQGTQVTVSS	low polyreactivity
QVQLVDSGGVLVQAGGSLRLSCAASGGTFRTYAMGWYRQAPGKERELVAAITWRGGSTYYADSVKGRFTISRDNAKNTVYLQMNSLKPEDTAVYNCAARVAYQWSFYKYDYWGQGTQVTVSS	high polyreactivity
QVQLVESGGGLVQAGGSLRLSCAASGRTFRVYTMGWYRPAPGKERELVAVISGRGGSTSYADSVKGRFTISRDNAKNSVYVQINSLKPEDTAVYYCAALYTQSNSASMYYWGQGTQVTVSS	high polyreactivity
QVQLVESGGGLVQAGGSLRLSCAASGSTFYPNAMGWYRQAPGKERELVAAITSGGSTNYADSVKGRFTISRDNAKNTVYLQMNSLKPEDTAVYYCAAVGKYRIRSDYWGQGTQVTVSS	low polyreactivity
QVQLVESGGGLVQAGGSLRLSCAASGSIFGDNAMGWYRQAPGKERELVATISSSDASTYYADSVKGRFTISRDNAKKTVYLQMNSLKPEDTAVYYCAAARSGGYDYWGQGTQVTVSS	low polyreactivity
QVQLVESGGGLVQAGGSLRLSCAASGSIFTKYAMGWYRQAPGKEREFVAAITLSGGSTYYADSVKGRFTIGRDNAKNTVYLQMNSLKPEDTAVYYCNAAYTYVTAWYYYWGQGTQVTVSS	high polyreactivity
QVQLVESGGGLVQAGGSLRLSCAASGRTFWYYTMGWYRQAPGKERELVASISRVTSTYYADSVKGRLTISRDNAKNTVYLQMNSLKPEDTAVYYCAADRTRYYVGYRWTGNKMDYWGQGSQVTVSS	low polyreactivity
QVQLVESGGGLVQAGGSLRLSCAASGRTFRRYAMGWYRQAPGKERELVAAITSGGSTNYADSVKGRFTISRDNAKNNVYLQMNSLKPEDTAVYYCNARYFRGYDYWGQGTQVTVSS	high polyreactivity
